Reference: patent publication US20220372155A1 (LYVGEN BIOPHARMA, published 2022)

B1: Ly617 (bispecific antibody, human IgG1, kappa)
heavy: QVQLQQPGAELVKPGASVKLSCKASGYTFTSYWMHWVKQRPGQGLEWIGMIHPNSGGTNYNEKFKGKGTLTVDKSSSTAYMQLSSLTSDDSAVYYCVTSQATWFAYWGQGTLVTVSAASTKGPSVFPLAPSSKSTSGGTAALGCLVKDYFPEPVTVSWNSGALTSGVHTFPAVLQSSGLYSLSSVVTVPSSSLGTQTYICNVNHKPSNTKVDKKVEPKSCDKTHTCPPCPAPELLGPSVFLFPPKPKDTLMISRTPEVTCVVVDVSHEDPEVKFNWYVDGVEVHNAKTKPREEQYNSTYRVVSVLTVLHQDWLNGKEYKCKVSNKALPAPIEKTISKAKGQPREPQVYTLPPSREEMTKNQVSLTCLVKGFYPSDIAVEWESNGQPENNYKTTPPVLDSDGSFFLYSKLTVDKSRWQQGNVFSCSVMHEALHNHYTQKSLSLSPGGGGGSGGGGSGGGGSGGGGSEVQLVESGGGLVQPGGSLRLSCAASGFTFTNYGLHWVRQAPGKGLEWVSSISPSGGVTYYRDSVKGRFTISRDNSKNTLYLQMNSLRAEDTAVYYCAKPFLGWGGANWIAHWGQGTLVTVSSGGGGSGGGGSGGGGSGGGGSDIQMTQSPSSLSASVGDRVTITCLASEDISNDLAWYQQKPGKAPKLLIYFVDRLLDGVPSRFSGSGSGTDFTLTISSLQPEDFATYYCQQSYKYPPTFGQGTKLEIK
light: ENVLTQSPAIMSVSPGEKVTMTCRASSSVSSSYLHWYQQKSGASPKFWIYSTSNLASGVPARFSGSGSGTSYSLTISSVEAEDAATYYCQHYSGYPLTFGAGTKLELRRTVAAPSVFIFPPSDEQLKSGTASVVCLLNNFYPREAKVQWKVDNALQSGNSQESVTEQDSKDSTYSLSSTLTLSKADYEKHKVYACEVTHQGLSSPVTKSFNRGEC
notes: Ly387 HC (IgG1 mutated Fc)-TM559 scFv VH-VL + Ly387 LC
B2: Ly517 (bispecific antibody, human IgG1, kappa)
heavy: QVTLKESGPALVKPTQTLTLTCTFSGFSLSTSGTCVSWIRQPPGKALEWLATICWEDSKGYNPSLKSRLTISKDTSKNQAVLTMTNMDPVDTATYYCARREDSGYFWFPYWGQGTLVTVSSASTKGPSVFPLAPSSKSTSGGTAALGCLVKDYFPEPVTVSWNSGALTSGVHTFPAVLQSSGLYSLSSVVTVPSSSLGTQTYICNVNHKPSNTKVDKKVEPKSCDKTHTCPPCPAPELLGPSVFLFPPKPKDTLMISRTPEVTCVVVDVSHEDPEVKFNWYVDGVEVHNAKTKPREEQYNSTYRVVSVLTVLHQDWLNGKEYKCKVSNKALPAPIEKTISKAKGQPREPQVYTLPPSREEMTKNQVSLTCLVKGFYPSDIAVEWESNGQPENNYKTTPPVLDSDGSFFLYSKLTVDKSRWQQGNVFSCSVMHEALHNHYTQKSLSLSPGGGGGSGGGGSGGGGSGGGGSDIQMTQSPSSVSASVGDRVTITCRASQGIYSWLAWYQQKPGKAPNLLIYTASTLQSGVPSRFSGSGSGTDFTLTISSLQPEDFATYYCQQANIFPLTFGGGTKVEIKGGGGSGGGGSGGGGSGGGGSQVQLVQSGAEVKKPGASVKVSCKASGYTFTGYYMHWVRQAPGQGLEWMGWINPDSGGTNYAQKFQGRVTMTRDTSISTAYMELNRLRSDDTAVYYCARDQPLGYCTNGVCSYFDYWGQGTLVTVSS
light: NIQMTQSPSSLSASVGDRVTITCKAGQNVNNYLAWYQQKPGKAPKVLIFNANSLQTGVPSRFSGSGSGTDFTLTISSLQPEDFATYYCQQYNSWPTFGGGTKVEIKRTVAAPSVFIFPPSDEQLKSGTASVVCLLNNFYPREAKVQWKVDNALQSGNSQESVTEQDSKDSTYSLSSTLTLSKADYEKHKVYACEVTHQGLSSPVTKSFNRGEC
notes: Ly516 HC (IgG1 mutated Fc)-Ly253 scFv VL-VH + Ly516 LC
B3: Ly518 (bispecific antibody, human IgG1, kappa)
heavy: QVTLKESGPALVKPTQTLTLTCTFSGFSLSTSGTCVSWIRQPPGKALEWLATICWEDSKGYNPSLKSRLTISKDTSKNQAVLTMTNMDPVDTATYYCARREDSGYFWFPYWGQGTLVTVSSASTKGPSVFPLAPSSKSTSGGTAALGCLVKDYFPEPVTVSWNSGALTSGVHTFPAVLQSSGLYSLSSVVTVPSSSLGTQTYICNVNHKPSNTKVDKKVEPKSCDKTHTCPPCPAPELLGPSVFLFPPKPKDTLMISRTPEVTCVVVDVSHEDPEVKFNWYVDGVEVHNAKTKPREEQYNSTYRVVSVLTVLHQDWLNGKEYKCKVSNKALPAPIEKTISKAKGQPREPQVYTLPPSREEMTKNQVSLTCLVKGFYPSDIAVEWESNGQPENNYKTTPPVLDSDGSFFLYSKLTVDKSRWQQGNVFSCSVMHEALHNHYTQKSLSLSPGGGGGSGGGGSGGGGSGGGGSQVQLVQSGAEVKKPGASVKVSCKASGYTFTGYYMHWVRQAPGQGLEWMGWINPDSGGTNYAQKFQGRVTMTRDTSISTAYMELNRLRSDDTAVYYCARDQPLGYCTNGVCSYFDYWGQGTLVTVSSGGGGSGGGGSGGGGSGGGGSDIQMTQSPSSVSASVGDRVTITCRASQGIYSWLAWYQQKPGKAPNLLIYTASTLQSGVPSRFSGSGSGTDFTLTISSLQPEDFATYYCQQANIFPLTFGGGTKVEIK
light: B2 light
notes: Ly516 HC (IgG1 mutated Fc)-Ly253 scFv VH-VL + Ly516 LC
B4: Ly606 (bispecific antibody, human IgG1, kappa)
heavy: QVTLKESGPALVKPTQTLTLTCTFSGFSLSTSGTCVSWIRQPPGKALEWLATICWEDSKGYNPSLKSRLTISKDTSKNQAVLTMTNMDPVDTATYYCARREDSGYFWFPYWGQGTLVTVSSASTKGPSVFPLAPSSKSTSGGTAALGCLVKDYFPEPVTVSWNSGALTSGVHTFPAVLQSSGLYSLSSVVTVPSSSLGTQTYICNVNHKPSNTKVDKKVEPKSCDKTHTCPPCPAPELLGPSVFLFPPKPKDTLMISRTPEVTCVVVDVSHEDPEVKFNWYVDGVEVHNAKTKPREEQYNSTYRVVSVLTVLHQDWLNGKEYKCKVSNKALPAPIEKTISKAKGQPREPQVYTLPPSREEMTKNQVSLTCLVKGFYPSDIAVEWESNGQPENNYKTTPPVLDSDGSFFLYSKLTVDKSRWQQGNVFSCSVMHEALHNHYTQKSLSLSPGGGGGSGGGGSGGGGSGGGGSDIQMTQSPSSLSASVGDRVTITCKASQNIYIYLNWYQQKPGKAPKLLIYNTNNLQTGVPSRFSGSGSGTDFTLTISSLQPEDFATYYCLQHSSRRTFGGGTKVEIKGGGGSGGGGSGGGGSGGGGSQVQLVESGGGLVQPGGSLKLSCATSGFNFNDYFMNWVRQASGKGLEWVGQIRNKNYNYATYYTESLEGRVTISRDDSKNTAYLQMNSLKTEDTAVYYCTSYYYDGFADYFDYWGQGTTVTVSS
light: B2 light
notes: Ly516 HC (IgG1 mutated Fc)-TM740 scFv VL-VH + Ly516 LC
B5: Ly607 (bispecific antibody, human IgG1, kappa)
heavy: QVTLKESGPALVKPTQTLTLTCTFSGFSLSTSGTCVSWIRQPPGKALEWLATICWEDSKGYNPSLKSRLTISKDTSKNQAVLTMTNMDPVDTATYYCARREDSGYFWFPYWGQGTLVTVSSASTKGPSVFPLAPSSKSTSGGTAALGCLVKDYFPEPVTVSWNSGALTSGVHTFPAVLQSSGLYSLSSVVTVPSSSLGTQTYICNVNHKPSNTKVDKKVEPKSCDKTHTCPPCPAPELLGPSVFLFPPKPKDTLMISRTPEVTCVVVDVSHEDPEVKFNWYVDGVEVHNAKTKPREEQYNSTYRVVSVLTVLHQDWLNGKEYKCKVSNKALPAPIEKTISKAKGQPREPQVYTLPPSREEMTKNQVSLTCLVKGFYPSDIAVEWESNGQPENNYKTTPPVLDSDGSFFLYSKLTVDKSRWQQGNVFSCSVMHEALHNHYTQKSLSLSPGGGGGSGGGGSGGGGSGGGGSQVQLVESGGGLVQPGGSLKLSCATSGFNFNDYFMNWVRQASGKGLEWVGQIRNKNYNYATYYTESLEGRVTISRDDSKNTAYLQMNSLKTEDTAVYYCTSYYYDGFADYFDYWGQGTTVTVSSGGGGSGGGGSGGGGSGGGGSDIQMTQSPSSLSASVGDRVTITCKASQNIYIYLNWYQQKPGKAPKLLIYNTNNLQTGVPSRFSGSGSGTDFTLTISSLQPEDFATYYCLQHSSRRTFGGGTKVEIK
light: B2 light
notes: Ly516 HC (IgG1 mutated Fc)-TM740 scFv VH-VL + Ly516 LC
B6: Ly608 (bispecific antibody, human IgG1, kappa)
heavy: QVTLKESGPALVKPTQTLTLTCTFSGFSLSTSGTCVSWIRQPPGKALEWLATICWEDSKGYNPSLKSRLTISKDTSKNQAVLTMTNMDPVDTATYYCARREDSGYFWFPYWGQGTLVTVSSASTKGPSVFPLAPSSKSTSGGTAALGCLVKDYFPEPVTVSWNSGALTSGVHTFPAVLQSSGLYSLSSVVTVPSSSLGTQTYICNVNHKPSNTKVDKKVEPKSCDKTHTCPPCPAPELLGPSVFLFPPKPKDTLMISRTPEVTCVVVDVSHEDPEVKFNWYVDGVEVHNAKTKPREEQYNSTYRVVSVLTVLHQDWLNGKEYKCKVSNKALPAPIEKTISKAKGQPREPQVYTLPPSREEMTKNQVSLTCLVKGFYPSDIAVEWESNGQPENNYKTTPPVLDSDGSFFLYSKLTVDKSRWQQGNVFSCSVMHEALHNHYTQKSLSLSPGGGGGSGGGGSGGGGSGGGGSDIQMTQSPSSLSASVGDRVTITCLASEDISNDLAWYQQKPGKAPKLLIYFVDRLLDGVPSRFSGSGSGTDFTLTISSLQPEDFATYYCQQSYKYPPTFGQGTKLEIKGGGGSGGGGSGGGGSGGGGSEVQLVESGGGLVQPGGSLRLSCAASGFTFTNYGLHWVRQAPGKGLEWVSSISPSGGVTYYRDSVKGRFTISRDNSKNTLYLQMNSLRAEDTAVYYCAKPFLGWGGANWIAHWGQGTLVTVSS
light: B2 light
notes: Ly516 HC (IgG1 mutated Fc)-TM559 scFv VL-VH + Ly516 LC
B7: Ly519 (bispecific antibody, human IgG1, kappa)
heavy: QVTLKESGPALVKPTQTLTLTCTFSGFSLSTSGTCVSWIRQPPGKALEWLATICWEDSKGYNPSLKSRLTISKDTSKNQAVLTMTNMDPVDTATYYCARREDSGYFWFPYWGQGTLVTVSSASTKGPSVFPLAPSSKSTSGGTAALGCLVKDYFPEPVTVSWNSGALTSGVHTFPAVLQSSGLYSLSSVVTVPSSSLGTQTYICNVNHKPSNTKVDKKVEPKSCDKTHTCPPCPAPELLGPSVFLFPPKPKDTLMISRTPEVTCVVVDVSHEDPEVKFNWYVDGVEVHNAKTKPREEQYNSTYRVVSVLTVLHQDWLNGKEYKCKVSNKALPAPIEKTISKAKGQPREPQVYTLPPSREEMTKNQVSLTCLVKGFYPSDIAVEWESNGQPENNYKTTPPVLDSDGSFFLYSKLTVDKSRWQQGNVFSCSVMHEALHNHYTQKSLSLSPGK
light: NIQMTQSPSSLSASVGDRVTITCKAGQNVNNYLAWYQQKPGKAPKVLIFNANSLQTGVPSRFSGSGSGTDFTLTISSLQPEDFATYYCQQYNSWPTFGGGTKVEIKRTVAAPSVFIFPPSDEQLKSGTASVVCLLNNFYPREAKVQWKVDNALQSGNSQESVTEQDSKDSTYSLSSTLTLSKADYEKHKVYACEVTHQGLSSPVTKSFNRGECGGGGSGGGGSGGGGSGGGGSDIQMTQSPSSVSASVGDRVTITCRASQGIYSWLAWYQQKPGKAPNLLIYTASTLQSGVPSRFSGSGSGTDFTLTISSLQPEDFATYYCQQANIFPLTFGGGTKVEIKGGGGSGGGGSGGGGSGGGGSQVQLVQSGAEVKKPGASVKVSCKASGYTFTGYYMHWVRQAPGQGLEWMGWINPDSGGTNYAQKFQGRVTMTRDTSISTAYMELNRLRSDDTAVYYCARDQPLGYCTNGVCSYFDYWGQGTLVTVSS
notes: Ly516 HC (IgG1 mutated Fc) + Ly516 LC-Ly253 scFv VL-VH
B8: Ly520 (bispecific antibody, human IgG1, kappa)
heavy: B7 heavy
light: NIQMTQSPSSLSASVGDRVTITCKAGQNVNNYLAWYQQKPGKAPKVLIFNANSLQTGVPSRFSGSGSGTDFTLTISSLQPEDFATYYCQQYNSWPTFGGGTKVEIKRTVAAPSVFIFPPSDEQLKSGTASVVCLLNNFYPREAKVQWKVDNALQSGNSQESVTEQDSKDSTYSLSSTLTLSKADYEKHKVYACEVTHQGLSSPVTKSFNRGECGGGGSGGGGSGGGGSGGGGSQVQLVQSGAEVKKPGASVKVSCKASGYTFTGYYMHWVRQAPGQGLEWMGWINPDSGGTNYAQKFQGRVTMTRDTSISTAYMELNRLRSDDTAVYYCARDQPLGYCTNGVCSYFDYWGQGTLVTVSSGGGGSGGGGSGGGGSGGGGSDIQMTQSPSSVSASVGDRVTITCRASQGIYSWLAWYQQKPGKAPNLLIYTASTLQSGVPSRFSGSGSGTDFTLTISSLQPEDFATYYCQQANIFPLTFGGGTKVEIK
notes: Ly516 HC (IgG1 mutated Fc) + Ly516 LC-Ly253 scFv VH-VL

target: T1, human CD40 expressed on CHO cells (human, UniProt P25942 21-277); experiment: FACS, CHO cells
T1 construct: whole, on cells; also used for the reporter cells over-expressing human CD40; also called cellular CD40; CHO-CD40 cells
T1 sequence (P25942 21-277): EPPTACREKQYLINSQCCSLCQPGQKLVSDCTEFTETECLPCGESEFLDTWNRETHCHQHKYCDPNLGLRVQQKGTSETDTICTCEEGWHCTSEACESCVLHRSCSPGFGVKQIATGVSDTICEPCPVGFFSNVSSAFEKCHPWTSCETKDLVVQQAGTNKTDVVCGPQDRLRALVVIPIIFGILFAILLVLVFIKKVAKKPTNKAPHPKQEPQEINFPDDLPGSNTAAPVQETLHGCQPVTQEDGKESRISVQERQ

Row | binding result | Binder
1 | binds | B1
2 | binds | B2
3 | binds | B3
4 | binds | B4
5 | binds | B5
6 | binds | B6
7 | binds | B7
8 | binds | B8

target: T2, human PD-1 expressed on CHO cells (human, UniProt Q15116 25-288); experiment: FACS, CHO cells
T2 construct: whole, on cells; also used for human PD-1 on Jurkat reporter cells; also called Jurkat/NFkB-Luci/PD-1 cells
T2 sequence (Q15116 25-288): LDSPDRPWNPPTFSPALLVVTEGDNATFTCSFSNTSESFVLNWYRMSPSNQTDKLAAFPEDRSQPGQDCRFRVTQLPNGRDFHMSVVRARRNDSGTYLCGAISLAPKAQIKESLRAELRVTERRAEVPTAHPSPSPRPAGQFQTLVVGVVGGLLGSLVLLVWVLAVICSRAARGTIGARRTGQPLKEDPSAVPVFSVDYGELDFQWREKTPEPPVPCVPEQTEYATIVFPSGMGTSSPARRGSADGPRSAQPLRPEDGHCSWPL

Row | binding result | Binder
9 | binds | B2
10 | binds | B3
11 | binds | B4
12 | binds | B5
13 | binds | B6
14 | binds | B7
15 | binds | B8

target: T3, Human CD40 ECD protein (mouse IgG2a Fc tag) (human, UniProt P25942 21-193); experiment: bridging ELISA, coated B7H3-His, soluble CD40-msFc
T3 construct: extracellular domain; also called Human CD40-msFc; human recombinant CD40; not shown: mouse IgG2a Fc tag
Method: Anti-B7H3/CD40 bi-specific antibodies were analyzed by ELISA for their simultaneous binding to recombinant human B7H3 and human CD40. Briefly, Human B7H3 CD protein (His-tag) was diluted and coated onto an ELISA plate with a volume of […] by incubation at 4° C. overnight. The next day, the plate was blocked with PBST-BSA buffer, then serially diluted samples of anti-B7H3/CD40 bi-specific antibodies were pipetted into appropriate wells at 50 μL/well, and the plate was incubated for 1 h followed by washing. Human CD40-msFc antibody was added into the plate at 50 μL/well. After 1-hour incubation at room temperature, […] anti-Mouse IgG (H+L) antibody was added into the plate at 100 μL/well. The plate was incubated for 1 hour at room temperature followed by washing. TMB substrate solution was added at 100 p L/well and the color development was stopped by adding 100 uUwell Stop Solution (2N H2SO4). Absorbance at 450 nm and 620 nm was read by Tecan F200 Pro plate reader. GraphPad 7.0, “[Agonist] vs. response—Variable slope (four parameters)” was used to plot the binding data and calculate binding EC50 values.

T3 sequence (P25942 21-193): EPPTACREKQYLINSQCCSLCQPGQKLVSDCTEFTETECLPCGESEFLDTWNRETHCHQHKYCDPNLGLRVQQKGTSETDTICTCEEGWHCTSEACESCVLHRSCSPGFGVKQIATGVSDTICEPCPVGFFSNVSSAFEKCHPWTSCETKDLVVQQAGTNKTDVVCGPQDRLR

Row | binding result | Binder
16 | binds | B1

target: T4, Ly090 (human CD40 ECD protein with His tag) (human, UniProt P25942 21-193); experiment: bridging ELISA, coated CD40 ECD-His, soluble PD-1 ECD-mFc
T4 construct: extracellular domain; also called human CD40 ECD protein (His tag); recombinant human CD40; not shown: His tag
Method: (§1) Briefly, human CD40 ECD protein (His tag) was diluted and coated onto an ELISA plate with a volume of […] by incubation at 4° C. overnight. […] After 1-hour incubation at room temperature, HRP-conjugated anti-Mouse IgG (H+L) antibody was added into the plate at 100 μL/well. The plate was incubated for 1 hour at room temperature followed by washing. TMB substrate solution was added at 100 μL/well and the color development was stopped by adding 100 uL/well Stop Solution (2N H2SO4). Absorbance at 450 nm and 620 nm was read by Tecan F200 Pro plate reader. GraphPad 7.0, “[Agonist] vs. response—Variable slope (four parameters)” was used to plot the binding data and calculate binding EC50 values.

T4 sequence (P25942 21-193): as above

Row | binding result | Binder
17 | binds | B2
18 | binds | B3
19 | binds | B4
20 | binds | B5
21 | binds | B6
22 | binds | B7
23 | binds | B8

target: T5, Human PD-1-ECD protein (mouse IgG2a Fc tag) (human, UniProt Q15116 25-170); experiment: as above
T5 construct: extracellular domain; also called soluble human recombinant PD-1; not shown: mouse IgG2a Fc tag
Method: as §1

T5 sequence (Q15116 25-170): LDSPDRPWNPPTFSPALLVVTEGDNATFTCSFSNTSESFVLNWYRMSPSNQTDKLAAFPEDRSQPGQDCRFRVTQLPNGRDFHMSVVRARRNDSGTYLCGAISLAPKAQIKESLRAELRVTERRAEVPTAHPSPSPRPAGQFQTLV

Row | binding result | Binder
24 | binds | B2
25 | binds | B3
26 | binds | B4
27 | binds | B5
28 | binds | B6
29 | binds | B7
30 | binds | B8
